Assay results: ChEMBL document CHEMBL1143427, “Interactions of ceftobiprole with beta-lactamases from molecular classes A to D” (Antimicrob Agents Chemother, 2007)

Assays:
Conditions in all cases: Enterobacter cloacae
[1] = substrate: O=C(Cc1cccs1)N[C@@H]1C(=O)N2C(C(=O)[O-])=C(C[n+]3ccccc3)CS[C@H]12
Description: Ratio of Kcat to Km of Enterobacter cloacae 4092 AmpC (E2) assessed as drug hydrolysis by spectrophotometry

[2] = substrate: Nc1nc(/C(=N/O)C(=O)N[C@@H]2C(=O)N3C(C(=O)O)=C(/C=C4\CCN([C@@H]5CCNC5)C4=O)CS[C@H]23)ns1
Description: (§1) Activity of Enterobacter cloacae 4092 AmpC (E2) assessed as drug hydrolysis by spectrophotometry

[3] = substrate: O=C(Cc1cccs1)N[C@@H]1C(=O)N2C(C(=O)[O-])=C(C[n+]3ccccc3)CS[C@H]12; remark: listed apart in the source
Description: as §1

[4] = substrate: CC(C)(O/N=C(\C(=O)N[C@@H]1C(=O)N2C(C(=O)[O-])=C(C[n+]3ccccc3)CS[C@H]12)c1csc(N)n1)C(=O)O
Description: as §1

[5] = substrate: O=C(Cc1cccs1)N[C@@H]1C(=O)N2C(C(=O)O)=C(/C=C/c3ccc([N+](=O)[O-])cc3[N+](=O)[O-])CS[C@H]12
Description: as §1

[6] = substrate: CC1(C)S[C@@H]2[C@H](NC(=O)Cc3ccccc3)C(=O)N2[C@H]1C(=O)O
Description: as §1

[7] = substrate: CO/N=C(\C(=O)N[C@@H]1C(=O)N2C(C(=O)[O-])=C(C[N+]3(C)CCCC3)CS[C@H]12)c1csc(N)n1
Description: as §1

B1: Beta-lactamase (Enterobacter cloacae), P05364 (protein)
chain: MMRKSLCCALLLGISCSALATPVSEKQLAEVVANTITPLMKAQSVPGMAVAVIYQGKPHYYTFGKADIAANKPVTPQTLFELGSISKTFTGVLGGDAIARGEISLDDAVTRYWPQLTGKQWQGIRMLDLATYTAGGLPLQVPDEVTDNASLLRFYQNWQPQWKPGTTRLYANASIGLFGALAVKPSGMPYEQAMTTRVLKPLKLDHTWINVPKAEEAHYAWGYRDGKAVRVSPGMLDAQAYGVKTNVQDMANWVMANMAPENVADASLKQGIALAQSRYWRIGSMYQGLGWEMLNWPVEANTVVEGSDSKVALAPLPVAEVNPPAPPVKASWVHKTGSTGGFGSYVAFIPEKQIGIVMLANTSYPNPARVEAAYHILEALQ
kcat/Km [1]: 1.5e+06 M⁻¹ s⁻¹ | Km [2]: 26 µM | kcat [2]: < 0.057 s⁻¹ | Km [3]: 480 µM | kcat [3]: 690 s⁻¹ | Km [4]: 110 µM | kcat [4]: 0.16 s⁻¹ | Km [5]: 56 µM | kcat [5]: 570 s⁻¹ | Km [6]: 8.3 µM | kcat [6]: 65 s⁻¹ | Km [7]: > 630 µM | kcat [7]: < 0.021 s⁻¹
